The target in test [1] is T1, CRFR2 (Homo sapiens, UniProt Q13324).
T1 sequence (Q13324 whole entry, looked up): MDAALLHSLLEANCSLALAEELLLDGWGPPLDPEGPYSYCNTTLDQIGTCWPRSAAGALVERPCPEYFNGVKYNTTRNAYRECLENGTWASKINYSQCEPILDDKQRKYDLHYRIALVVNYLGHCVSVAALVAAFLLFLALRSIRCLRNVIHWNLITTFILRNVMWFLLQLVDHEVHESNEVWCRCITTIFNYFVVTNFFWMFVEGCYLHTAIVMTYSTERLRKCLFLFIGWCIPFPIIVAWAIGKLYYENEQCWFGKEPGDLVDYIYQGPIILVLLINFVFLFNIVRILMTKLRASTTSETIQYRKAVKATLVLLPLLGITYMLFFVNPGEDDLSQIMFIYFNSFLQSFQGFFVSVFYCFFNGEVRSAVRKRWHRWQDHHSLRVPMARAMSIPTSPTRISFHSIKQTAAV
Description: EC50, nmol (% of Emax) | CRFR2. An excerpt:
(§1) Table printed on a drawing sheet, FIGURE 10
(§2) Title: Pharmacokinetic Parameters
Head of the field: EC50, nmol (% of Emax) | CRFR2
(§3) Footnotes: FIGURE 10: Effect of maximum or steady state plasma concentrations (Cmax or Css) of various CRFR2 agonists (CT38, SCP or Ucn2), dosed by subcutaneous bolus (triangles) or intravenous infusion (circles), on the maximum heart rate (HRmax) in healthy subjects (solid lines) or stable congestive heart failure patients (dashed lines). The table provides comparative pharmacokinetic parameters for the CRFR2 agonists.
(§4) That is, for strongly potent CRFR2 agonists and relative intermediate plasma concentrations, the loss of the ability to induce a heart rate increase via continuous dosing, was driven by the duration of dosing, and appeared to occur with different selective CRFR2 agonists (e.g., Ucn2, stresscopin), irrespective of the condition of the human subject.
(§5) First copying reader's note: Each EC50 cell holds the EC50 in nmol with the % of Emax in brackets after it.
Where the first naming reader finds the target: head: EC50, nmol (% of Emax) | CRFR2

For test [2], the target named is CRFR1 (Homo sapiens, UniProt P34998). The test is described as follows: EC50, nmol (% of Emax) | CRFR1.
Source text: as §1, §2
Head of the field: EC50, nmol (% of Emax) | CRFR1
as §3, §4, §5
Where the first naming reader finds the target: head: EC50, nmol (% of Emax) | CRFR1

Test [3] addresses T2, CRFR1 (Homo sapiens, UniProt P34998).
T2 sequence (P34998 24-415): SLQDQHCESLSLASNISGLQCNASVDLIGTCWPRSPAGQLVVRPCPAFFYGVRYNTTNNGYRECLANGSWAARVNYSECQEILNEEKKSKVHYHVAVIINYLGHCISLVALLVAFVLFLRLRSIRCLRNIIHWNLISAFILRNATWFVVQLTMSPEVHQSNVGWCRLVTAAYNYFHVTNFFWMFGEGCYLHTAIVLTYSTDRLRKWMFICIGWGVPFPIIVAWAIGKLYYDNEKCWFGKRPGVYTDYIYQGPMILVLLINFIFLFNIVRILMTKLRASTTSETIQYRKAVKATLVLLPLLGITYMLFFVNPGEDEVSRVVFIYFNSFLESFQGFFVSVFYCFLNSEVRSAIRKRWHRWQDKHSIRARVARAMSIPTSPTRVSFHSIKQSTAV
The test is described as follows: in vitro binding potential for CRFR1 (table of FIG. 10). It counts as biochemical.

In test [4] the target is T1, CRFR2. Description: in vitro potency / binding potential for CRFR2 (table of FIG. 10). Type of test: biochemical.
The test system of test [5] is stable congestive heart failure patients. The conditions noted are these: escalating i.v. infusion over 3 hours; cited from earlier work.

The text below walks through data of patent US11648295B2, “Methods of treating diseases resulting from a maladapted stress response” (Cortene Inc., priority 2016, dated 2023).

No end group written: not given here. A value given as a limit tells only on which side of the number the result lay.

Consider “Ucn3: endogenous CRFR2-selective agonist peptide, used as a proxy for SCP (FTLSLDVPTNIMNLLFNIAKAKNLRAQAAANAHLMAQI) [listing 1 of 2 here]”, for which the “EC50, nmol (% of Emax) | CRFR2” value with CRFR2 [1] was > 100 (60) nmol (% of Emax). In the test with CRFR1 [2], the “EC50, nmol (% of Emax) | CRFR1” value is > 1000 (10) nmol (% of Emax).

Turning to “Ucn3: endogenous CRFR2-selective agonist peptide, used as a proxy for SCP (FTLSLDVPTNIMNLLFNIAKAKNLRAQAAANAHLMAQI) [listing 2 of 2 here]”, the “in vitro binding potential for CRFR1” value with CRFR1 [3] was “weak binding potential for CRFR1 (minimal, at moderate concentrations)”. The “in vitro binding potential for CRFR2” value with CRFR2 [4] is “strong binding potential for CRFR2 (maximal, at low concentrations)”.

Turning to “stresscopin (FTLSLDVPTNIMNLLFNIAKAKNLRAQAAANAHLMAQI; ends and bridges not checked; UniProt Q969E3 120-157, looked up)”, the “pattern of effect on heart rate versus Ucn2” value in test [5] was “very similar”.
